Among the data in a protein production outcome set (Wang et al. 2014) are protein production values, retold here.

This series in a line: label from the status in PepcDB records.
Take “MFLNRKVELSLLENLHAEGKPKLILLYGKRRVGKTELLNEFARRHRALYLVARQEAYEGQLKKMSSEIAEFFDDDVLRHSPFQNYDALFIYLAQKETPVLFDEFPYLVEANRDLPSILQEYWDRYFSKKKTFLVLCGSSIAMMESLLGYKSPLYGRRTEQILLEPLKFREACEFFPQLEQEDKVLAYAVLGGTPAYLLEFDYGKPLLENIRDRILQKNTFLYQDTMFVLQQELTEPRVYYSIINSIAKGNTRLGEIMNDTGLEKSKITKYLSVLKDLHIIERRVPVTEKSPESSKKGIYLLKDNYFKFWFRFVFENAEYIEQGRQEKLIGDKISPVLNNFAGFAYEEIVLEYLKSSPGFPDYIFGRWWDKEEEIDVVGLDSSQNRIIFGEVKWKALTEKEARQTLNQLVEKSVEVKWGENLKSGEIQEGPEKKYMLVGKKVGGKKRLLGDGYLVLELDDLVEN”: the protein production entry was “failed”.

As for “MFLNYFALGVLIFVFLVIFYGIIAIHDIPYLIAKKRNHPHADAIHTAGWVSLFTLHVIWPFLWIWATLYQPERGWGMQSHVASQEKATDPEIAALSDRISRLEHQLAAEKKTDYSTFPEI”, the protein production result was “failed”.

Take “MFMREIELRGHIIDSLILPKVFDKILDMGGDYKVLEFEIGKRKTDPSYAKILVIGRDERHVDEILNELRDLGAEIPEIEEVELQPAEKDMVLPEGFYSTTNHKTFIRFKGKWIEVENQKMDGAIVVYPDEMRAEVKTIRNIKKGDLVVVGHKGVRVIPPEKPREGGGLFEFMKSDASSEKPKETIIRRIAKEMYEIREKYRKTGKGGIVVVGGPAIIHTGAGWALAKLIRMGYVQALFAGNALATHDIESVLYGTSLGVDLKTGKSVPGGHSHHLRAINTIMRAGSIKDAVEQGILKEGVMYECIKNNIPYVLAGSIRDDGPLPDVITDVVKAQEKMRELLKGKDMVLMLSTMLHSIATGNLLPSWVKTICVDINPAVVTKLMDRGTSQALGIVTDVGVFLPMLVEELEKLEKEKEKSEKREELEHHHHHH”: the protein production entry is reported as “not failed”.

As to “MFNIADGGFTELHTLWLNEEKAAVPGREYEIWHRRHDYWLLAGIVTHGYGRWQDIQNDIRFAIINEPFKMDVGKGNFLEIKNKFLARRFKLLEQALVIEEQLRRAAYLNLAQDPSHPAMSLNARFAEVECLAESHQHLSKESLAGNKPANAVLHKVLNQLEELLSDMKSDVSRLPATLARIPPVAQRLQMSERSILSRLA”, the protein production entry was “failed”.

Turning to “MFNPNVAVKNIVTQNGADSIISLIARILMAYIFLVAGWGKITAYSATVGYMEAMGVPGALLPLTILVEFGGGLALLFGFQARFAAFGLGIFSLLTAFIFHEGTDQAQAINFMKNFAMAGGLFFLMLHGAGKISLDAAIEK”, the protein production entry is on record as “failed”.

Turning to “MFPILLLAFIFVPIIEIGLFIQVGGFLGLWPTIALVLITAFVGASLVRSQGIQTLMSVQGRLEQGEIPAQQIFEGVMLAVAGVLLLTPGFMTDALGMVVLLPAPRAAIAKYLMSKMVVKTMHGGGFQGGFSNQGPFEQDPFHRDPFDSRSDNGNTFEGEYERKDDDDRNKLN”, the protein production entry is on record as “failed”.

Consider “MFPLNFHYEDVSRQDPLLKPNHANVMEVPGSCEIRVVPKAPYNFIIKNGKLAMEIPRGQKFIQTQRGSTGKSFRSNPFLGSNKDKGYVSDLARQSTLRGHGMSNFSVRISTVMSLLDFPVEIRKNSIQFSMETEFCEFSPELEDHFEIFEHIRGFNVTIITSANTQDETLPLWSGFLQKDEGETQ”, for which the protein production entry was “failed”.

Turning to “MFPNSILGRPPFTPTHQQHNNFFALSPTLYSHQQLIDAQFNFQNVDLSRAVSLQPLTYGTVSPIQTSTSPLFRGRKRISDEKAFRLDGKRQRFHSPHQEPTIINQLVPLSGDRRYSMPPLFHTHYVPEIVRCVPPLREIPLLEPREITLPEAKDKLSQQILELFETCQQQASDLKKKELCRAQLQREIQLLFPQSRLFLVGSSLNGFGARSSDGDLCLVVKEEPCFFQVNQKTEARHILTLVHKHFCTRLSGYIERPQLIRAKVPIVKFRDKVSCVEFDLNVNNTVGIRNTFLLRTYAYLENRVRPLVLVIKKWASHHEINDASRGTLSSYSLVLMVLHYLQTLPEPILPSLQKIYPESFSTSVQLHLVHHAPCNVPPYLSKNESSLGDLLLGFLKYYATEFDWNTQMISVREAKAIPRPDDMEWRNKYICVEEPFDGTNTARAVHEKQKFDMIKDQFLKSWQRLKNKRDLNSVLPLRAATLKR”, the protein production entry is given as “failed”.

Consider “MFQAIQQKLLLMPSGKKNLLSLGMKTAITRVFSALFAFLLTLIVSRTTDASTSGQFFFLFNLVSLTAIISQRGFDVALVRFNAIAFSNGDIQQQSDNYWTALTRSITFCFMAAVTLFVGFYLFPNQLNQTNSPIVAITLALMCVPFLVLGQTNSRVLQASKMVVPSLFALQLGVSVLMVLFIMGLSTLHLQNINSLMTALLLASLIVSIASTTKWFSSGQYQKPTPTTNIELISSAKQVWIGSIFTNILQWGSIVIAGFFISTTELGLLAAAQRTSLLIGFVLITINFVVAPMFASLFKEGKLDKLRNLSRWACRANIGAALLPVLVCTLFPEFVMQLFGDEFLAAAPLLVVLSLGQLVNIATGSVGFLLLMSGHERTMKYITICSGTISIALLVFLSQSYGVLGAAWAMAIGMAIQNLAALYFVKRYLGFFPVG”, for which the protein production result is “failed”.

For the sequence “MFQALIDVVLPVFLVIGAGYCTTFAGYFKPEHIDGVMRFTQGFAIPCLLFRAIANLDLNAGFDPALLASFYMAAFLCFTAGLLGARLLFNRDWEDSVAIGFCCLFSNSVLLGLAITERAYGPENLVGNYAIIAIHSPFCYALGITTMEVIRNRGRGGRKMVTSVLNAMFRNVLILGIALGFIVNLSGISLPQIADDALSLIIRAALPGALFALGGVLVQYRPEGDTRVIVYICAISLLLHPGLVWLFGSALALPQDLFRSGVLNAAMAPGFNAYIFANIYGRAKRVAASSVLVATAASILTVWMWLMLLG”, the protein production entry was “failed”.

As for “MFQISFMSKQLQDLIDRELMNASSLVKKGKYEKALEKLNKAERLAEKAKNSELFCRVLLHKGEILDSMEKSREALLQYEKALEISLRFFMSDPQDSSSQRCLYNSIDLMENILNKIDDVSVAEKSYERTNKYFGKVIGTYEKLIAKYPENHYYLINYIITVKNLRGYLLNVGKSEKQIQLINSTLETFKEILNIQPENPEIFEKLDEFVKDLGEEFLDDELFENAKKIYEHLQGIYRGLLENYPDNELVLHYLIVSYGYFGNLYSRQRYLDRIEETYRPALSIVEDNLRKNPENTAFLENLGKIHEKIGVTYSEAKDQEKANSYYEKALANFVNLKGKASEDPDYQAELGKIFANLGERFETINRIENAAKSYLHKIEIYDSLFEEDPEDEDVKMDNIDTLMHIGNLYAEAGYTEPAKKYYEKAIEGYERLLSENPESTDFEIGISDILTALGDMYAKVGEEETEPEDAELETAREYYEKALKLNEKEFERYPDDLTCQDELIRTLGKLGDSFAVQDRYEDVIPFYRRIVEIKEQVVRDDPRRWLAVNSLTNFLYQLGSYYGKIEEVELERKQYSKAAELYSRALHDKNLQHQIKEVLAVEVQSHGTALLKSGKYNAAKEALDLALEFFENLYEEDPEDEENYPFICEALFQNGNLQRALENFEEAAKSFDSLLPIVEKLLESNPESPEARENAGVTYTNVGEVYSLNGEYEKSKQAFERALTINAVLLEEEPDNSLYKINQAQTFEKYAKLLSKLGRSEEAEDYSTKSEEIYRKLAEEDSDEGDINE”, the protein production entry is given as “failed”.

“MFRAMHLSLLGCLLGTSGCHGLPPAPPAPSAAVGNYGEVIDYLQRHIRREMERQDVPGLALALVDDQQLVWARGFGYADRQHRINASEHTAFHAGDLSKLLIASATLQLAERGQLSLDAPLQDTLREFYVRSRFHADQSEADRAITFRRLLSHQSGLPGEHLPPLFGERPNSLGQLPAKVSGVWLSNPPGTQVAHSNLGYELVGAAIERNTGKHFEQHMREHLLDPLQMTRSSFARNALPQAQRAHGYSGGGRPGSASDLPVNDLWSSPVDLSRFVRMLFANGRHKERQLLRKHSVEEMFRQQNAGNALDFDCQVGLAWFLSPCGSAPLEGGIRHYEYASATPGFSAHLILLPEQRLAAIVMSNADDSGSLTASLARQAASLMLQVKQGARRPAVQPTPARAPALEVPSPEDRRQLYGRYATRQGQIRLYERRGRLYADFGEQRVELLRDTSGWLQMRKRLLGFWPVGVDSAGQLQLDVVSYGQRRILVSRRHDQTAYLGERIEPTSLPQAWTEAVGTYRVASTGRHSYLNGLSIRIEDGFLLVRGQAGGTRSGEFILQPIDSAHAVLAGSGQGLGDTFSRDFDGLNALGYRFAQQDTKARPWLQRKESP”: the protein production entry is reported as “failed”.

On to “MFRKVLFPTDFSEGAYRAVEVFEKRNKMEVGEVILLHVIDEGTLEELMDGYSFFYDNAEIELKDIKEKLKEEASRKLQEKAEEVKRAFRAKNVRTIIRFGIPWDEIVKVAEEENVSLIILPSRGKLSLSHEFLGSTVMRVLRKTKKPVLIIKEVDENELAKTKGTSG”, for which the protein production entry is given as “not failed”.
